Changes are numbered by the printed parent chain. Names and notes keep the numbering of the source. Like-named read-outs stand apart in the source and are kept apart here.

The target in assay [1] is T1, human IL-31 (human, UniProt Q6EBC2 24-164, limits assumed).
T1 sequence (looked up): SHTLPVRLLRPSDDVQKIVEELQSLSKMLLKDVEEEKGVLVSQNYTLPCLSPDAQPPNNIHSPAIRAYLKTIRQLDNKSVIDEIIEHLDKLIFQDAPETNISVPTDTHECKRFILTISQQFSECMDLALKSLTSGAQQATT
Kind of assay: cell-based or functional assay.

For assay [2], the target named is T1, human IL-31. The assay can be described thus: cell-based or functional assay. This is another data set of the same source.
Assay [3] deals with T1, human IL-31. The assay can be described thus: competitive ELISA: IL-31RA coated, biotinylated IL-31 preincubated with scFv. The text has this:
For this purpose, IL-31RA was coated on the ELISA plate.
Potency of the two humanized scFvs was further determined using a competitive ELISA.

For assay [4], the target named is T2, human IL-31-His (human, UniProt Q6EBC2 24-164).
T2 construct: form captured via anti-His tag antibody in the SPR of the scFvs (sections 1.8 and 2.4); also called hIL-31; not shown: His tag
T2 sequence (looked up): T1 sequence (looked up)
The assay can be described thus: SPR (Biacore T200), human IL-31-His captured via anti-His antibody, scFv as analyte. The method, then: (§1) After each analyte injection cycle the sensor chip was regenerated and new antigen was captured. The scFvs were measured using a dose response multi-cycle kinetic assay in a high-throughput mode with two concentrations (30 and 10 nM) diluted in running buffer. Obtained sensorgrams were fitted using a 1:1 binding model.
(In general: In SPR one partner is held on a chip, and binding of the other changes the refractive index at the surface.)

The target of assay [5] is T2, human IL-31-His. Described as above. Here is the method:
as §1
(§2) The scFvs were measured using a dose response multi-cycle kinetic assay in a high-throughput mode with two concentrations (30 and 10 nM) diluted in running buffer. Obtained sensorgrams were fitted using a 1:1 binding model.
The source holds these as a separate data set.

Assay [6] concerns the target T3, cynomolgus IL-31-His (cynomolgus monkey (Macaca fascicularis)).
T3 construct: extracellular domain; also called cynomolgus monkey IL-31; cyno IL-31
Kind of assay: SPR (Biacore T200), cynomolgus IL-31-His captured via anti-His antibody, scFv as analyte. Here is the method:
as §1

Assay [7] addresses T3, cynomolgus IL-31-His. Described as above. Here is the method:
as §1, §2
The source holds these as a separate data set.

For assay [8], the target named is T1, human IL-31. The assay can be described thus: cell-based or functional assay. This is another data set of the same source.
The target in assay [9] is T1, human IL-31. The assay can be described thus: cell-based or functional assay. The source holds these as a separate data set.
For assay [10], the target named is T1, human IL-31. The assay can be described thus: cell-based or functional assay. This is another data set of the same source.
In assay [11] the target is T1, human IL-31. The assay can be described thus: cell-based or functional assay. The source holds these as a separate data set.
For assay [12], the target named is T1, human IL-31. Kind of assay: cell-based or functional assay. The source holds these as a separate data set.
Assay [13] deals with T1, human IL-31. The assay can be described thus: cell-based or functional assay. This is another data set of the same source.
The target in assay [14] is T1, human IL-31. Kind of assay: competitive ELISA: IL-31RA coated, biotinylated IL-31 preincubated with the antibody, bound IL-31 detected with streptavidin-HRP; blocked interaction IL-31/IL-31RA.
In assay [15] the target is T1, human IL-31. The assay is described as above. The source holds these as a separate data set.
For assay [16], the target named is T1, human IL-31. The description is as above. This is another data set of the same source.

B1: PRO1643 (scFv)
scFv: AFQLTQSPSSLSASVGDRVTITCQASQSIDSWLAWYQQKPGKPPKLLIYQASKLASGVPSRFSGSGSGTDYTLTISSLQPEDFATYYCQTYYGGGHIGWGFGTGTKVTVLGGGGGSGGGGSGGGGSGGGGSQSQLVESGGGLVQPGGSLRLSCAASGFSFSANYWICWVRQAPGKGLEWIVCIYIGSRADTYYAPWAKGRFTISKDNSKNTVYLQMNSLRAEDTAVYFCARFSSGIYDLDRFFLWGQGTLVTVSS
notes: scFv (VL-linker-VH), full graft of rabbit clone 50-09-D07; also called 50-09-D07-sc03; 50-09-D07-5c03
B1: the “IC50 [ng/ml], neutralization of hIL-31-induced signaling in IL-31RA/OSMR dimerization assay” value with human IL-31 [1] was 11.1 ng/mL; with human IL-31 [2], 8.08 ng/mL. In addition, the IC50 – broadly, the concentration at which inhibition is half-maximal – with human IL-31 [3] turned out to be 4.58 ng/mL. The Kd (usually a measure of binding affinity in units of concentration) worked out at 0.505 nM in the assay with human IL-31-His [4], 1.13 nM with human IL-31-His [5], 0.583 nM in the assay with cynomolgus IL-31-His [6] and 1.17 nM with cynomolgus IL-31-His [7]. The koff (commonly a measure of how fast the partners let go of each other) was 0.000447 s⁻¹ in the assay with human IL-31-His [4], 0.000653 s⁻¹ with human IL-31-His [5], 0.000444 s⁻¹ in the assay with cynomolgus IL-31-His [6] and 0.000587 s⁻¹ with cynomolgus IL-31-His [7]. For the same molecule, the kon (as a rule, the rate constant with which the complex forms) came out at 884000 M⁻¹ s⁻¹ in the assay with human IL-31-His [4], 579000 M⁻¹ s⁻¹ with human IL-31-His [5], 761000 M⁻¹ s⁻¹ in the assay with cynomolgus IL-31-His [6] and 501000 M⁻¹ s⁻¹ with cynomolgus IL-31-His [7].

B2: PRO1902 (scFv)
scFv: B1 scFv with Y184S
notes: scFv (VL-linker-VH); variant of PRO1643 with VH Y59S (AHo numbering); also called 50-09-D07-sc06; 50-09-D07-5c06
For B2, in the assay with human IL-31-His [5], the Kd worked out at 2.89 nM, the koff stood at 0.00246 s⁻¹ and the kon was determined as 852000 M⁻¹ s⁻¹.

B3: PRO1903 (scFv)
scFv: B1 scFv with D30E
notes: scFv (VL-linker-VH); variant of PRO1643 with VL D32E (AHo numbering); also called 50-09-D07-sc07; 50-09-D07-5c07
In the assay with human IL-31-His [5], B3 gave a Kd of 1.22 nM, a koff of 0.000638 s⁻¹ and a kon of 524000 M⁻¹ s⁻¹.

B4: PRO1900 (scFv)
scFv: B1 scFv with L142R, V226T, L250Q
notes: scFv (VL-linker-VH); variant of PRO1643 with VH L12R, V103T, L144Q (AHo numbering); also called 50-09-D07-sc04; 50-09-D07-5c04
Consider B4, for which the “IC50 [ng/ml], neutralization of hIL-31-induced signaling in IL-31RA/OSMR dimerization assay” value in the assay with human IL-31 [2] was 8.21 ng/mL. Also, in the assay with human IL-31-His [5], binding was characterised by a dissociation constant (Kd) of 0.907 nM, the koff worked out at 0.000599 s⁻¹ and the kon is 661000 M⁻¹ s⁻¹. In the assay with cynomolgus IL-31-His [7], this molecule had a dissociation constant Kd of 1.07 nM, a koff of 0.000594 s⁻¹ and a kon of 554000 M⁻¹ s⁻¹.

B5: PRO1901 (scFv)
scFv: B1 scFv with L142S, V226T, L250Q
notes: scFv (VL-linker-VH); variant of PRO1643 with VH L12S, V103T, L144Q (AHo numbering); also called 50-09-D07-sc05
In the assay with human IL-31-His [5], B5 registered a Kd of 0.956 nM, an off-rate (koff) of 0.000565 s⁻¹ and a kon of 591000 M⁻¹ s⁻¹.

B6: BMS-981164 (antibody, V domains shown)
VH: QVQLVQSGAEVKKPGASVKVSCKASGYTLTRYWMQWVRQAPGQGLEWMGAIYPGDGDTRYSQKFQGRVTLTADKSTSTAYMELSSLRSEDTAVYYCAFPDGYYAAPYGMDYWGQGTLVTVSS
VL: DIQMTQSPSSLSASVGDRVTITCRASGNIHNYLAWYQQKPGKVPKLLIYNAKTLADGVPSRFSGSRSETQYSLTISSLQPEDVATYYCQHFWSTPWTFGQGTKVEIKR
As for B6, the “IC50 (read off the curve)” value is about 10 ng/mL with human IL-31 [8]; about 8 ng/mL with human IL-31 [9]; about 10 ng/mL in the assay with human IL-31 [10]; about 7 ng/mL in the assay with human IL-31 [11]; about 10 ng/mL with human IL-31 [12]; about 10 ng/mL in the assay with human IL-31 [13]. Also, the “IC50 (read off the curve)” value in the assay with human IL-31 [14], with human IL-31 [15] and with human IL-31 [16] was about 10 ng/mL each time.

The values are drawn from patent US20240043547A1 (NUMAB THERAPEUTICS, published 2024).
